Blank lines part the entries; values can stand above or below the binder they belong to.
Target: T1, recombinant HMGB-1 (Homo sapiens (Human), UniProt P09429 1-215)
T1 construct: also called recombinant HMGB1 protein; recombinant HMGB-1 obtained from R&D system
T1 sequence: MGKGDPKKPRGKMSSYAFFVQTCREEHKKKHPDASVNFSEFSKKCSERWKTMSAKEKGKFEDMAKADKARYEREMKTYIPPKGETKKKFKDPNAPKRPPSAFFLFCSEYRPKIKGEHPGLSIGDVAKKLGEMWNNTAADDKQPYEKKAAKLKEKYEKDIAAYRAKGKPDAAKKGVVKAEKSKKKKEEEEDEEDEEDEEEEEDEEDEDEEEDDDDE
Experiment: SPR, BIACORE3000

Kd: 1.3 nM
B1: anti-HMGB-1 mAb 3E8 (antibody, V domains shown)
VH: QVQLQQSGPELVKPGASVKISCKASGYAFSNYWMNWVKQRPGKGLEWIGRIYPGDGDMAYNGKFRGKATLTADKSSSTAYMQLSSLTSEDSAVYFCARSLDGYVGYVMDYWGQGTSVTVSS
VL: DIVMTQAAPSVPVTPGESVSISCRSSKSLLHRNGNIFLYWFLQRPGQSPQLLIYRMSNLASGVPDRFSGSGSGTAFTLRISRVETEDVGVYYCMQHLEYPFTFGSGTKLEIK

Kd: 7.8 nM
B2: anti-HMGB-1 mAb 3B1 (antibody, V domains shown)
VH: QVQLQQPGAELVKPGASVKLSCKASGYTFTSYWMHWVKQRPGQGLEWIGNIDPSDSETHYNQKFKDKATLTVDKSSSTAYMQLNSLTSEDSAVYYCAKRGYYGYDYWGQGTTLTV
VL: DVLMTQTPLSLPVSLGDQASISCRSSQSIVHSNGNTYLEWYLQKAGQSPKLLIYKVSNRFSGVPDRFSGSGSGTDFTLKISRVEAEDLGVYYCFQGAHVPRTFGGGTKLEIK

Source: patent US20110064746A1 (published 2011)
